Measured values as given in patent publication US20210025890A1 (Genentech, published 2021).
One block for each binder: values may come before it.

What was measured:
intact human FGF21 [1] = molecular target: T1, intact human FGF21 (human, UniProt Q9NSA1 29-209); experiment: sandwich ELISA; capture mAb15, detection mAb4
T1 construct: also called full-length, uncleaved FGF21; iFGF21
T1 sequence: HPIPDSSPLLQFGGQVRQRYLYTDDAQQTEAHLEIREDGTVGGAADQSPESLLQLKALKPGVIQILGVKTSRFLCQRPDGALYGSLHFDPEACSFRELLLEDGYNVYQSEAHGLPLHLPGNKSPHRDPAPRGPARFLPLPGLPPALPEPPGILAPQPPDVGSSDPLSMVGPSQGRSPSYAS
Excerpt: (§1) The absorbance values were plotted as a function of antibody concentration and the data were fitted to a three parameter equation for each antibody using Prism 6 (GraphPad Software, Inc., La Jolla, Calif.). The most consistent result was observed when antibodies mAb4 or 9 were used as the capture antibody and antibody mAb11 or mAb15 was used as the detector antibody (FIG. 2 and Table 7). Therefore, mAb8 and 16 were removed from further analysis.

FAP-cleaved human FGF21 [2] = molecular target: T2, FAP-cleaved human FGF21 (human, UniProt Q9NSA1 29-199); experiment: sandwich ELISA; capture mAb15, detection mAb4
T2 construct: Made by digesting intact human FGF21 with human FAP; also called cleaved FGF21; cFGF21
T2 sequence: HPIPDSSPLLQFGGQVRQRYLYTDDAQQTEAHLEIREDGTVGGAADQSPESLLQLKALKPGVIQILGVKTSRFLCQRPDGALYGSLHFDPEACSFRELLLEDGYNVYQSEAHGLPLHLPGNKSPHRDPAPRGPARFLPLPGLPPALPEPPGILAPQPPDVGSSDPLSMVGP
Excerpt: as §1

intact human FGF21 [3] = molecular target: T1, intact human FGF21; experiment: sandwich ELISA; capture mAb15, detection mAb11
Excerpt: as §1

FAP-cleaved human FGF21 [4] = molecular target: T2, FAP-cleaved human FGF21; experiment: sandwich ELISA; capture mAb15, detection mAb11
Excerpt: as §1

intact human FGF21 [5] = molecular target: T1, intact human FGF21; experiment: sandwich ELISA; capture mAb4, detection mAb11
Excerpt: as §1

FAP-cleaved human FGF21 [6] = molecular target: T2, FAP-cleaved human FGF21; experiment: sandwich ELISA; capture mAb4, detection mAb11
Excerpt: as §1

intact human FGF21 [7] = molecular target: T1, intact human FGF21; experiment: sandwich ELISA; capture mAb4, detection mAb15
Excerpt: as §1

FAP-cleaved human FGF21 [8] = molecular target: T2, FAP-cleaved human FGF21; experiment: sandwich ELISA; capture mAb4, detection mAb15
Excerpt: as §1

intact human FGF21 [9] = molecular target: T1, intact human FGF21; experiment: sandwich ELISA; capture mAb4, detection mAb16
Excerpt: as §1

FAP-cleaved human FGF21 [10] = molecular target: T2, FAP-cleaved human FGF21; experiment: sandwich ELISA; capture mAb4, detection mAb16
Excerpt: as §1

intact human FGF21 [11] = molecular target: T1, intact human FGF21; experiment: sandwich ELISA, intact human FGF21; capture mAb4, detector mAb1
Excerpt: (§2) The absorbance values were plotted as a function of antibody concentration and the data were fitted to a three parameter equation to calculate the half maximal effective concentration (EC₅₀) values for each antibody using Prism 6 (GraphPad Software, Inc., La Jolla, Calif.) (Table 6).

intact human FGF21 [12] = molecular target: T1, intact human FGF21; experiment: sandwich ELISA, intact human FGF21; capture mAb4, detector mAb10
Excerpt: as §2

intact human FGF21 [13] = molecular target: T1, intact human FGF21; experiment: sandwich ELISA, intact human FGF21; capture mAb4, detector mAb11
Excerpt: as §2

FAP-cleaved human FGF21 [14] = molecular target: T2, FAP-cleaved human FGF21; experiment: sandwich ELISA; EC50 on FAP-cleaved FGF21 over EC50 on intact FGF21
Procedure: (§3) IgG obtained from the selected 20 hybridomas identified in Example 1 were further characterized by ELISA. ELISA was performed as follows: 96 well MaxiSorp plate (439454, Nalge Nunc International; Rochester, N.Y.) was coated with 1 μg/mL of anti-FGF21 mAbs or anti-FGF21 sheep pAbs (Cat. No. RD184108100, Biovendor, Asheville, N.C.) in coating buffer (50 mM sodium carbonate, pH 9.6) overnight at 4° C. […] After washing with the Washing buffer, the plate was incubated with 0.5 μg/ml of the secondary antibody (R&D Systems, biotinylated goat anti-FGF21 pAb BAF2539) for 1-2 hr at room temperature. After washing with Washing buffer, the plate was incubated with High Sensitivity Streptavidin-HRP (PIERCE Cat. No. 21130) diluted 1:1,000 in assay buffer. After washing with the Washing buffer, the binding of anti-FGF21 to recombinant FGF21 was assessed by adding substrate 3, 3′, 5, 5′ tetramethyl benzidine (TMBE 1000, Moss; Pasadena, Md.). The mean absorbance values from duplicate wells were plotted as a function of antibody concentration and the data were fitted to a three parameter equation to calculate the half maximal effective concentration (EC₅₀) values for each antibody using Prism 6 (GraphPad Software, Inc., La Jolla, Calif.) (Table 2).

intact human FGF21 [15] = molecular target: T1, intact human FGF21; experiment: sandwich ELISA; coated primary Ab, FGF21 titrated, detector biotinylated goat anti-FGF21 pAb BAF2539
Procedure: as §3

FAP-cleaved human FGF21 [16] = molecular target: T2, FAP-cleaved human FGF21; experiment: as above
Procedure: as §3

intact human FGF21 [17] = molecular target: T1, intact human FGF21; experiment: sandwich ELISA; capture mAb9, detection mAb11
Excerpt: as §1

FAP-cleaved human FGF21 [18] = molecular target: T2, FAP-cleaved human FGF21; experiment: sandwich ELISA; capture mAb9, detection mAb11
Excerpt: as §1

intact human FGF21 [19] = molecular target: T1, intact human FGF21; experiment: sandwich ELISA; capture mAb9, detection mAb15
Excerpt: as §1

FAP-cleaved human FGF21 [20] = molecular target: T2, FAP-cleaved human FGF21; experiment: sandwich ELISA; capture mAb9, detection mAb15
Excerpt: as §1

intact human FGF21 [21] = molecular target: T1, intact human FGF21; experiment: sandwich ELISA; capture mAb9, detection mAb16
Excerpt: as §1

FAP-cleaved human FGF21 [22] = molecular target: T2, FAP-cleaved human FGF21; experiment: sandwich ELISA; capture mAb9, detection mAb16
Excerpt: as §1

intact human FGF21 [23] = molecular target: T1, intact human FGF21; experiment: sandwich ELISA, intact human FGF21; capture mAb9, detector mAb1
intact human FGF21 [24] = molecular target: T1, intact human FGF21; experiment: sandwich ELISA, intact human FGF21; capture mAb9, detector mAb10
Excerpt: as §2

intact human FGF21 [25] = molecular target: T1, intact human FGF21; experiment: sandwich ELISA, intact human FGF21; capture mAb9, detector mAb11
intact human FGF21 [26] = molecular target: T1, intact human FGF21; experiment: sandwich ELISA; capture mAb11, detection mAb4
Excerpt: as §1

FAP-cleaved human FGF21 [27] = molecular target: T2, FAP-cleaved human FGF21; experiment: sandwich ELISA; capture mAb11, detection mAb4
Excerpt: as §1

intact human FGF21 [28] = molecular target: T1, intact human FGF21; experiment: sandwich ELISA; capture mAb11, detection mAb15
Excerpt: as §1

FAP-cleaved human FGF21 [29] = molecular target: T2, FAP-cleaved human FGF21; experiment: sandwich ELISA; capture mAb11, detection mAb15
Excerpt: as §1

intact human FGF21 [30] = molecular target: T1, intact human FGF21; experiment: sandwich ELISA, intact human FGF21; capture mAb11, detector mAb4
intact human FGF21 [31] = molecular target: T1, intact human FGF21; experiment: sandwich ELISA, intact human FGF21; capture mAb11, detector mAb9

B2: mAb4 (antibody, V domains shown)
VH: EVKLVESGGDLVKPGGSLKLSCAASGFTFSSYGMSWVRQTPDKRLEWVATISTGGGYTYYPDSVKGRFTISRDNAKNTLYLQMSSLRSEDTAMYYCARHDLVDWYFDVWGTGTTVTVSS
VL: QIVLTQSPAIMSAPLGERVTMTCTASSSVSSSYLHWYQQKPGSSPKVWIYRTTNLASGVPTRFSGSGSGTSYSLTISSMEAEDAATYYCHQYHRSPPTWTFGGGTKLEIKR
notes: Biotinylated when used as detector, coupled to beads in the Simoa assays; also called BIO-4 (biotinylated); antibody 4
- EC50 (intact human FGF21 [5]): 0.195 ng/mL
- EC50 (FAP-cleaved human FGF21 [6]): 0.148 ng/mL
- EC50 (intact human FGF21 [7]): 0.232 ng/mL
- EC50 (FAP-cleaved human FGF21 [8]): 0.263 ng/mL
- EC50 (intact human FGF21 [9]): 1.25 ng/mL
- EC50 (FAP-cleaved human FGF21 [10]): 7.04 ng/mL
- EC50 (intact human FGF21 [11]): 0.193 ng/mL
- EC50 (intact human FGF21 [12]): 0.108 ng/mL
- EC50 (intact human FGF21 [13]): 0.133 ng/mL
- EC50 ratio (Cleaved/Intact) (FAP-cleaved human FGF21 [14]): 1.9
- EC50 (intact human FGF21 [15]): 0.09 ng/mL
- EC50 (FAP-cleaved human FGF21 [16]): 0.17 ng/mL

B3: mAb9 (antibody, V domains shown)
VH: EVQLQQSGPELVKPGASVKIPCKASGYTFTDYYMGWVKQSHGKSLEWIGDINPNNGVTINNQNFKGKATLTVDKSSSTAYMELRSLASEDTAVYYCTRGYGGALDYWGQGTSVTVSS
VL: DIQMTQSPASLSASVGETVIITCRASENIYSYLAWYQQKQGKSPQLLVYNIRTLAEGVPSRFSGSGSGTQFSLKINSLQPEDFGSYYCQHHYDSPWTFGGGTKLEIKR
notes: also called BIO-9 (biotinylated); antibody 9
- EC50 (intact human FGF21 [17]): 0.166 ng/mL
- EC50 (FAP-cleaved human FGF21 [18]): 0.156 ng/mL
- EC50 (intact human FGF21 [19]): 0.431 ng/mL
- EC50 (FAP-cleaved human FGF21 [20]): 0.363 ng/mL
- EC50 (intact human FGF21 [21]): 1.45 ng/mL
- EC50 (FAP-cleaved human FGF21 [22]): 6.23 ng/mL
- EC50 (intact human FGF21 [23]): 0.249 ng/mL
- EC50 (intact human FGF21 [24]): 0.161 ng/mL
- EC50 (intact human FGF21 [25]): 0.156 ng/mL
- EC50 ratio (Cleaved/Intact) (FAP-cleaved human FGF21 [14]): 1.6
- EC50 (intact human FGF21 [15]): 0.855 ng/mL
- EC50 (FAP-cleaved human FGF21 [16]): 1.39 ng/mL

The next lines start with the values.

- EC50 (intact human FGF21 [1]): 0.537 ng/mL
- EC50 (FAP-cleaved human FGF21 [2]): 0.562 ng/mL
- EC50 (intact human FGF21 [3]): 1.39 ng/mL
- EC50 (FAP-cleaved human FGF21 [4]): 1.24 ng/mL
B1: mAb15 (antibody, V domains shown)
VH: QVQLIQSGPGLVQPSQSLSITCTVSGFSLTGYAIHWVRQSPGKGLEWLGMIWKSGNTDYNAAFMSRLSITKDNSKSQVFFKMNSLQADDTAIYYCARNGYDYEFVYWGQGTLVTVSA
VL: DVLMTQTPLSLPVSLGDQASISCRSSQIIVHNNGDTYLEWYLQKPGQSPKLLIYKISNRFSGVPDRFSGSGSGTDFTLKISRVEAEDLGVYYCFQGSHVPYTFGGGTKLEIKR
notes: Biotinylated when used as detector; also called BIO-15 (biotinylated); mAb15-Biotin

- EC50 (intact human FGF21 [26]): 0.205 ng/mL
- EC50 (FAP-cleaved human FGF21 [27]): 0.204 ng/mL
- EC50 (intact human FGF21 [28]): 0.774 ng/mL
- EC50 (FAP-cleaved human FGF21 [29]): 0.63 ng/mL
- EC50 (intact human FGF21 [30]): 0.161 ng/mL
- EC50 (intact human FGF21 [31]): 0.195 ng/mL
- EC50 ratio (Cleaved/Intact) (FAP-cleaved human FGF21 [14]): 2.1
- EC50 (intact human FGF21 [15]): 0.149 ng/mL
- EC50 (FAP-cleaved human FGF21 [16]): 0.318 ng/mL
B4: mAb11 (antibody, V domains shown)
VH: QVQLQQSGAELARPGASVKLSCKASGYTFTNYGISWVKQRTGQGLEWIGEIYPRSDNTYYNEKFKGKATLTADKSSSTAYMELRSLTSEDSAVYFCTRSDYGFFDYWGQGTTLTVSS
VL: QIVLTQSPALMSASPGERVTMTCSAGSSVSYMYWYQQKPRSSPKPWIYLTSNLASGVPARFSGSGSGTSYSLTISSMEAEDAATYYCQQWSSNPRTFGGGTKLEIKR
notes: Biotinylated when used as detector; also called BIO-11 (biotinylated); antibody 11
